From article PMC3098241, “Amyloid-Associated Nucleic Acid Hybridisation” (PLoS ONE, 2011) come the findings set out here.

Series [1] deals with the molecule itself. Kind of series: circular dichroism + transmission electron microscopy; 0.8 mM STVIIE, 20 mM glycine pH 2.6, 20 C, spectra every 30 min for 24 h, without or with 242 nM 33mer DNA oligonucleotide (1:100 charge ratio); random coil to beta-sheet transition and fibrils. In general terms: Circular dichroism is widely used to follow secondary structure.
Series [2] deals with the molecule itself. Kind of series: X-ray fibre diffraction; dried aligned stalks from gels of peptide with salmon testis DNA or poly(A) RNA (5 mM (KL)5 + 5 mM DNA, pH 7, 150 mM NaCl; 16 mM (HL)5 + 10 mM poly(A) RNA pH 6; 1.6 mM TVQFHMH + 1.6 mM DNA pH 5.0; 16 mM TVQFHMH + 10 mM poly(A) RNA pH 6.0; 10 mM (KL)3 + 10 mM DNA; 5 mM (HL)3 + 5 mM DNA pH 6.2); cross-beta pattern as the sign of peptide self-assembly.

B1: STVIIE (peptide)
peptide: STVIIE
notes: source: synthetic peptide, bought: Severn Biotech (UK), HPLC-purified
Regarding B1, in series [1], the binding result is on record as “binds”.

B2: TVQFHMH (peptide)
peptide: TVQFHMH
notes: source: synthetic peptide, bought: GL Biochem (PR China) or Peptide 2.0 (USA), 95% purity
On to B2, for which the binding result in series [2] is recorded as “binds”.
